Measurements from patent US20140242093A1, “METHODS AND COMPOSITIONS FOR MODULATING THE INNATE IMMUNE RESPONSE AND/OR MYOGENESIS IN A MAMMALIAN SUBJECT” (FRED HUTCHINSON CANCER RESEARCH CENTER, priority 2011, published 2014).
“And” between values parts separate entries of the source, which are not always exact repeats. Identical values can stand only once.

Tests used:
[1] = tested on: Cultured primary muscle cells; test: Beta-defensin 3 and myotube formation, immunostaining for myosin heavy chain; type: cell-based; details: 0.5 uM, 72 hours in differentiation medium
Description: Cultured primary muscle cells were cultured in differentiation medium for 72 hours in the presence or absence of 0.5 uM Human β-defensin 3.

[2] = tested on: Cultured control human myoblasts; test: Beta-defensin 3 and innate immune response, real-time qPCR of IFIH1, ISG20, DEFB103; type: cell-based
Description: Cultured control human myoblasts were grown to 80% confluence and infected with equivalent titers of lenti-GFP, lenti-DUX4-s and lenti-DUX4-fl in growth media supplemented with 8 μg/mL polybrene. Expression of innate immune responsive genes including IFIH1 (MDA5), ISG20 and DEFB103 were assessed by real-time qPCR as previously described at 24 hours (primer sequences below). For conditioned media, cells were infected with lenti-DUX4-fl for 12 hours, thoroughly washed 3 times with PBS and switched to fresh growth media to condition for 12 hours. Control conditioned media was produced from cells not infected with any lentivirus. Myoblasts were infected with lenti-GFP in either control conditioned media, lenti-DUX4-fl conditioned media or regular growth media supplemented with 1 μM human β-defensin 3 (Peptides International, Louisville, Ky.). Expression of innate immune responsive genes were examined after 24 hours.

[3] = tested on: Cultured control myoblasts; test: Beta-defensin 3 on myoblasts in growth media, expression arrays and MSTN qPCR; type: cell-based, human
Description: Cultured control myoblasts were grown at 50% confluence and treated with 1 μM human β-defensin 3. Equivalent volume of vehicle (water) was added to myoblasts for the control condition. Quadruplicate samples of control- and DEFB103-treated myoblasts were assessed for global expression changes on HumanHT-12 v4 Expression BeadChip Whole Genome arrays and analyzed as described in main methods. Differential expression of myostatin (MSTN) was confirmed by real-time qPCR.

[4] = tested on: control myoblasts in differentiation media
Description: Cultured control myoblasts were grown to confluence and switched to differentiation media (as described in Snider et al., 2010). 24 hours later, media was refreshed and either supplemented with 1 μM human β-defensin 3 or equivalent volume of water. Media was refreshed again at 48 hours. Cells were differentiated for a total of 72 hours. Quadruplicate samples were analyzed by expression microarrays as described above.

B1: DEFB103: human β-defensin 3 peptide (Peptides International), polypeptide SEQ ID NO:178 (peptide, listed as Homo sapiens)
chain: MRIHYLLFALLFLFLVPVPGHGGIINTLQKYYCRVRGGRCAVLSCLPKEEQIGKCSTRGRKCCRRKK
muscle cell fusion and myosin heavy chain expression [1]: inhibits muscle cell fusion and expression of myosin heavy chain
induction of innate immune genes by lenti-GFP ([2]; RT-qPCR of IFIH1 and ISG20, FIG. 8): inhibited the induction of the innate immune response to lenti-GFP
viral entry and transduction ([2]; copies of viral integrants and GFP mRNA): did not prevent viral entry and transduction
mRNA for myostatin ([3]; RT-qPCR, myoblasts): increased the mRNA for myostatin
gene expression changes in myoblasts ([3]; expression arrays, 2-fold change threshold): did not alter the expression of any genes
myostatin upregulation ([3]; expression arrays, myoblasts): approximately 50%
log2 FC defMT/MT, CYP2J2 [4]: −1.05
expression of muscle differentiation genes (ACTA1, CKM, CASQ2, MYH2, TNNT3) ([4]; RT-qPCR, FIG. 11): inhibits the expression of genes necessary for normal muscle differentiation
number of genes with reduced expression ([4]; differentiating muscle cells vs untreated control): 44 genes
log2 FC defMT/MT, ACTA1 ([4]; gene ACTA1, log2 ratio of expression in DEFB103 treated muscle cells compared to control muscle cells, differentiation media): −2.65
log2 FC defMT/MT, AIF1L ([4]; gene AIF1L, DEFB103 treated vs control differentiating muscle cells): −1.16
log2 FC defMT/MT, AKR1C2 ([4]; gene AKR1C2, DEFB103 treated vs control differentiating muscle cells): 1.41
log2 FC defMT/MT, ANGPTL4 ([4]; gene ANGPTL4, DEFB103 treated vs control differentiating muscle cells): 1.21
log2 FC defMT/MT, ARPP-21 ([4]; gene ARPP-21, DEFB103 treated vs control differentiating muscle cells): −1.06
log2 FC defMT/MT, ATP2A2 ([4]; gene ATP2A2, DEFB103 treated vs control differentiating muscle cells): −1.04
log2 FC defMT/MT, CACNG1 ([4]; gene CACNG1, DEFB103 treated vs control differentiating muscle cells): −1.58
log2 FC defMT/MT, CASQ2 ([4]; gene CASQ2, DEFB103 treated vs control differentiating muscle cells): −2.00
log2 FC defMT/MT, CKB ([4]; gene CKB, DEFB103 treated vs control differentiating muscle cells): −1.16
log2 FC defMT/MT, CKM ([4]; gene CKM, DEFB103 treated vs control differentiating muscle cells): −1.90
log2 FC defMT/MT, CTGF ([4]; gene CTGF, DEFB103 treated vs control differentiating muscle cells): −1.12
log2 FC defMT/MT, DKK1 ([4]; gene DKK1, DEFB103 treated vs control differentiating muscle cells): 1.22
log2 FC defMT/MT, ENO3 ([4]; gene ENO3 (two array entries), DEFB103 treated vs control differentiating muscle cells): −1.51 and −1.47
log2 FC defMT/MT, FOLR1 ([4]; gene FOLR1 (two array entries), DEFB103 treated vs control differentiating muscle cells): −1.10 and −1.03
log2 FC defMT/MT, HBEGF ([4]; gene HBEGF, DEFB103 treated vs control differentiating muscle cells): −1.10
log2 FC defMT/MT, HES6 ([4]; gene HES6, DEFB103 treated vs control differentiating muscle cells): −1.24
log2 FC defMT/MT, HFE2 ([4]; gene HFE2, DEFB103 treated vs control differentiating muscle cells): −1.04
log2 FC defMT/MT, HMOX1 ([4]; gene HMOX1, DEFB103 treated vs control differentiating muscle cells): 1.66
log2 FC defMT/MT, HRC ([4]; gene HRC, DEFB103 treated vs control differentiating muscle cells): −1.40
log2 FC defMT/MT, IL32 ([4]; gene IL32, DEFB103 treated vs control differentiating muscle cells): −1.03
log2 FC defMT/MT, LMCD1 ([4]; gene LMCD1, DEFB103 treated vs control differentiating muscle cells): −1.03
log2 FC defMT/MT, LOC389827 ([4]; gene LOC389827 (two array entries), DEFB103 treated vs control differentiating muscle cells): −1.48 and −1.38
log2 FC defMT/MT, MME ([4]; gene MME, DEFB103 treated vs control differentiating muscle cells): 1.27
log2 FC defMT/MT, MT1X ([4]; gene MT1X, DEFB103 treated vs control differentiating muscle cells): 1.65
log2 FC defMT/MT, MYBPH ([4]; gene MYBPH, DEFB103 treated vs control differentiating muscle cells): −1.49
log2 FC defMT/MT, MYH3 ([4]; gene MYH3, DEFB103 treated vs control differentiating muscle cells): −2.20
log2 FC defMT/MT, MYH7 ([4]; gene MYH7, DEFB103 treated vs control differentiating muscle cells): −1.73
log2 FC defMT/MT, MYH8 ([4]; gene MYH8, DEFB103 treated vs control differentiating muscle cells): −2.62
log2 FC defMT/MT, MYL1 ([4]; gene MYL1 (two array entries), DEFB103 treated vs control differentiating muscle cells): −1.18 and −1.11
log2 FC defMT/MT, MYL6B ([4]; gene MYL6B, DEFB103 treated vs control differentiating muscle cells): −1.00
log2 FC defMT/MT, MYLPF ([4]; gene MYLPF, DEFB103 treated vs control differentiating muscle cells): −1.53
log2 FC defMT/MT, MYOM1 ([4]; gene MYOM1, DEFB103 treated vs control differentiating muscle cells): −1.20
log2 FC defMT/MT, NDRG1 ([4]; gene NDRG1, DEFB103 treated vs control differentiating muscle cells): 1.01
log2 FC defMT/MT, PLIN2 ([4]; gene PLIN2 (two array entries), DEFB103 treated vs control differentiating muscle cells): 1.61 and 1.79
log2 FC defMT/MT, PRAGMIN ([4]; gene PRAGMIN, DEFB103 treated vs control differentiating muscle cells): −1.10
log2 FC defMT/MT, RASSF4 ([4]; gene RASSF4, DEFB103 treated vs control differentiating muscle cells): −1.03
log2 FC defMT/MT, SMPX ([4]; gene SMPX, DEFB103 treated vs control differentiating muscle cells): −1.76
log2 FC defMT/MT, SMYD1 ([4]; gene SMYD1, DEFB103 treated vs control differentiating muscle cells): −1.07
log2 FC defMT/MT, TNNC1 ([4]; gene TNNC1, DEFB103 treated vs control differentiating muscle cells): −1.45
log2 FC defMT/MT, TNNC2 ([4]; gene TNNC2, DEFB103 treated vs control differentiating muscle cells): −1.49
log2 FC defMT/MT, TNNT1 ([4]; gene TNNT1, DEFB103 treated vs control differentiating muscle cells): −1.00
log2 FC defMT/MT, TNNT3 ([4]; gene TNNT3 (two array entries), DEFB103 treated vs control differentiating muscle cells): −1.55 and −1.52
log2 FC defMT/MT, TPM2 ([4]; gene TPM2, DEFB103 treated vs control differentiating muscle cells): −1.41
log2 FC defMT/MT, VASH2 ([4]; gene VASH2, DEFB103 treated vs control differentiating muscle cells): −1.22
log2 FC defMT/MT, ZFP106 ([4]; gene ZFP106, DEFB103 treated vs control differentiating muscle cells): −1.09
